Results from patent US8815236B2, “Method for treating multiple sclerosis and crohn's disease” (Biogen Idec MA, Inc., priority 2003, dated 2014).

Tests used:
Assay type in all cases: physicochemical
[1] = Agitation-induced precipitation: vials shaken at 150 rotations per minute
[2] = Protein precipitation facilitated by trace levels of silicone (lubricated polypropylene syringe); conditions: adjusted to 0.02% (w/v) polysorbate 80
From the text: The silicone oil was introduced into the product upon use of standard lubricated polypropylene syringes equipped with siliconized rubber stoppers. […] The aggregation, deamidation and subsequent precipitation caused by denaturation at the air-liquid interface has become more discernable problematic with the drug being shipped to more clinical sites. Both causes of protein precipitation have been resolved by the addition of polysorbate 80 at a concentration of 0.02% (w/v).
An evaluation of the ability of 0.02% (w/v) polysorbate 80 to inhibit the protein precipitation facilitated by trace levels of silicone was conducted. […] The material was allowed to stand for several hours at room temperature.

[3] = Antibody aggregation with partially degraded polysorbate 80 (shaking and siliconized syringes); conditions: control samples without polysorbate 80, same conditions
Experimental: This material was diluted one-to-one with a 10 mg/mL solution of AN100226 in Formulation #2 resulting in a solution containing 0.01% (w/v) polysorbate 80 and 50% of the maximum level of degraded polysorbate 80.

[4] = 65 mg/mL liquid formulation: appearance and SEC; conditions: 65 mg/mL in 10 mM sodium phosphate, 140 mM sodium chloride, pH 6, about 0.06% polysorbate 80
[5] = Lyophilized formulation reconstituted to 100 mg/mL: reconstitution, appearance, SEC; conditions: immediately after lyophilization and after 2 wks at 40 deg
Experimental: The solution was filled at 5 mL per vial into 10 mL borosilicate glass vials and fitted with gray butyl rubber lyophilization stoppers. Lyophilization was done using a Virtis Gensis model lyophilizer. The product was frozen at a shelf temperature of −60° C. for 10 hours and then the shelf temperature was raised to −40°. Primary drying was performed at a shelf temperature of −10° C. and a chamber pressure of 100 mTorr for 20 hours. […] The vials were stoppered under vacuum.
The samples were analyzed immediately after lyophilization and after 2 wks of storage in the lyophilized form at 40 deg.

In the case of natalizumab, the “appearance of vials after shaking” value ([1]; 5 mg/mL, Lot No. AN100226-0003 with 0.02% (w/v) polysorbate 80 added, 150 rotations per minute, room temperature, within 3 hours) is reported as “remained clear and free of particles”, the “particle formation on shaking” value ([1]; vials completely filled, absence of polysorbate 80, shaken for extended periods of time) is reported as “without additional particle formation being induced” and the “particles after 0.2 μm filtration into 5-mL vial” value ([2]; after syringe exposure, after several days) is reported as “substantially free of particles”. For the same substance, the “precipitation by visual inspection” value ([2]; lubricated 60 mL polypropylene syringe, several hours at room temperature) was “no precipitation”, the “precipitation of the antibody” value [3] was “significant precipitation” and the appearance of solution [4] was “slightly opalescent but without particulates”. The “appearance of reconstituted solutions” value ([5]; 100 mg/mL reconstituted) was “clear and colorless with an absence of particulate material” and the reconstitution times ([5]; lyophilized from 5 mM histidine, 20 mg/mL sucrose, 0.02% polysorbate 80, pH 6, 1 mL WFI to 100 mg/mL) was “immediate”.
